Measurements reported in patent US20250154198A1, “PEPTIDE INHIBITORS OF INTERLEUKIN-23 RECEPTOR” (Zealand Pharma A/S, priority 2021, published 2025).
*1 amine or outer side, *2 acyl side, *3 side chain or, on linkers, in order; H or OH if unused. Bridges are numbered along the chain shown (N, C = ends). Primed or numbered codes have the meaning given here. Where no end group is shown, it is not given here. [ ]: non-standard residue; d: D form. 4‑Aminomethyl‑phenylacetyl = 4-aminomethyl-phenylacetyl unit, its amine closes the lactam, O=C(Cc1ccc(CN[*:1])cc1)[*:2]; Q(pyrrolidin)″ = (2S)-2-amino-5-oxo-5-pyrrolidin-1-yl-pentanoic acid, O=C(CC[C@H](N[*:1])C(=O)[*:2])N1CCCC1; 1,3‑dibromopropan‑2‑one(3) = linker giving 1,3-dithio-propan-2-one bridge -SCH2C(=O)CH2S- between Cys; 4‑Aminomethyl‑phenylacetyl″ = N-terminal cap residue, O=C(Cc1ccc(CN[*:1])cc1)[*:2]; Ala(quinolin-3-yl) = N[C@@H](Cc1cnc2ccccc2c1)C(=O)O; Trp(4-F) = N[C@@H](Cc1c[nH]c2cccc(F)c12)C(=O)O; Trp(7-F) = N[C@@H](Cc1c[nH]c2c(F)cccc12)C(=O)O; 2Nal = N[C@@H](Cc1ccc2ccccc2c1)C(=O)O; AEF = NCCOc1ccc(C[C@H](N)C(=O)O)cc1; 3Pal = N[C@@H](Cc1cccnc1)C(=O)O; d3Pal = N[C@H](Cc1cccnc1)C(=O)O; αMeL = CC(C)C[C@](C)(N)C(=O)O; αMeV = CC(C)[C@](C)(N)C(=O)O; 3Amb = NCc1cccc(C(=O)O)c1; Orn = NCCC[C@H](N)C(=O)O; Dab = NCC[C@H](N)C(=O)O

Target: T1, human IL-23R endogenously expressed on DB cells (CRL-2289) (human, UniProt Q5VWK5 24-629)
T1 sequence (looked up): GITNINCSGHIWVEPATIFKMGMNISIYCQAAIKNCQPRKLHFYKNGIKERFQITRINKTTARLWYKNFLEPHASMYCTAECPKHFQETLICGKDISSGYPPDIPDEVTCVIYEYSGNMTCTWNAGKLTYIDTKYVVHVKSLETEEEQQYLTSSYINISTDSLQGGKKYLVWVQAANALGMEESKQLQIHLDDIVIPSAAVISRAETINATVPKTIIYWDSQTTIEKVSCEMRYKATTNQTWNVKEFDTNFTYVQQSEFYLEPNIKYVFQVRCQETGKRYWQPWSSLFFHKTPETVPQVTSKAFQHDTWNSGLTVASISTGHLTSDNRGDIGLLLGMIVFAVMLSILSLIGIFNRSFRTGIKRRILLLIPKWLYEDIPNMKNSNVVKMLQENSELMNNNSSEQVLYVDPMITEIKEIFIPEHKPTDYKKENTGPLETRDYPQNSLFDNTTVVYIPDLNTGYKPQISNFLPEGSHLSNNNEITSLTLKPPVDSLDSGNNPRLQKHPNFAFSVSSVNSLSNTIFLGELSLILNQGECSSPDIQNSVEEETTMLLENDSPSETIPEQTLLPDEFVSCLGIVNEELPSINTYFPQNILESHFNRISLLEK
Test: cell-based or functional assay

Binder	IC50 (pSTAT3)
[4‑Aminomethyl‑phenylacetyl″]S[Dab]WQE[AEF][2Nal][αMeL]E[Dab][3Pal]-NH2 (lactam N-10, 3-6; SMILES CC(C)C[C@]1(C)NC(=O)[C@H](Cc2ccc3ccccc3c2)NC(=O)[C@H](Cc2ccc(OCCN)cc2)NC(=O)[C@@H]2CCC(=O)NCC[C@H](NC(=O)[C@H](CO)NC(=O)Cc3ccc(cc3)CNC(=O)CC[C@@H](C(=O)N[C@@H](CCN)C(=O)N[C@@H](Cc3cccnc3)C(N)=O)NC1=O)C(=O)N[C@@H](Cc1c[nH]c3ccccc13)C(=O)N[C@@H](CCC(N)=O)C(=O)N2) [Compound 123]	25.3 pM
[4‑Aminomethyl‑phenylacetyl]SEWQ[Orn][AEF][2Nal][αMeL]E[Dab][3Pal]-NH2 (lactam N-10, 3-6; SMILES CC(C)C[C@]1(C)NC(=O)[C@H](Cc2ccc3ccccc3c2)NC(=O)[C@H](Cc2ccc(OCCN)cc2)NC(=O)[C@@H]2CCCNC(=O)CC[C@H](NC(=O)[C@H](CO)NC(=O)Cc3ccc(cc3)CNC(=O)CC[C@@H](C(=O)N[C@@H](CCN)C(=O)N[C@@H](Cc3cccnc3)C(N)=O)NC1=O)C(=O)N[C@@H](Cc1c[nH]c3ccccc13)C(=O)N[C@@H](CCC(N)=O)C(=O)N2) [Compound 124]	0.117 nM
[4‑Aminomethyl‑phenylacetyl]VEWQ[Dab][AEF][2Nal][αMeL]E[Dab]-NH2 (lactam N-10, 3-6; SMILES CC(C)C[C@]1(C)NC(=O)[C@H](Cc2ccc3ccccc3c2)NC(=O)[C@H](Cc2ccc(OCCN)cc2)NC(=O)[C@@H]2CCNC(=O)CC[C@H](NC(=O)[C@H](C(C)C)NC(=O)Cc3ccc(cc3)CNC(=O)CC[C@@H](C(=O)N[C@@H](CCN)C(N)=O)NC1=O)C(=O)N[C@@H](Cc1c[nH]c3ccccc13)C(=O)N[C@@H](CCC(N)=O)C(=O)N2) [Compound 126]	28 nM
[4‑Aminomethyl‑phenylacetyl]SEWQ[Dab][AEF][2Nal][αMeV]E[Dab]-NH2 (lactam N-10, 3-6; SMILES CC(C)[C@]1(C)NC(=O)[C@H](Cc2ccc3ccccc3c2)NC(=O)[C@H](Cc2ccc(OCCN)cc2)NC(=O)[C@@H]2CCNC(=O)CC[C@H](NC(=O)[C@H](CO)NC(=O)Cc3ccc(cc3)CNC(=O)CC[C@@H](C(=O)N[C@@H](CCN)C(N)=O)NC1=O)C(=O)N[C@@H](Cc1c[nH]c3ccccc13)C(=O)N[C@@H](CCC(N)=O)C(=O)N2) [Compound 136]	8.8 nM
[4‑Aminomethyl‑phenylacetyl]SE[Trp(4-F)]Q[Dab][AEF][2Nal][αMeL]E[Dab]-NH2 (lactam N-10, 3-6; SMILES CC(C)C[C@]1(C)NC(=O)[C@H](Cc2ccc3ccccc3c2)NC(=O)[C@H](Cc2ccc(OCCN)cc2)NC(=O)[C@@H]2CCNC(=O)CC[C@H](NC(=O)[C@H](CO)NC(=O)Cc3ccc(cc3)CNC(=O)CC[C@@H](C(=O)N[C@@H](CCN)C(N)=O)NC1=O)C(=O)N[C@@H](Cc1c[nH]c3cccc(F)c13)C(=O)N[C@@H](CCC(N)=O)C(=O)N2) [Compound 138]	39.4 nM
[4‑Aminomethyl‑phenylacetyl]SE[Trp(7-F)]Q[Dab][AEF][2Nal][αMeL]E[Dab]-NH2 (lactam N-10, 3-6; SMILES CC(C)C[C@]1(C)NC(=O)[C@H](Cc2ccc3ccccc3c2)NC(=O)[C@H](Cc2ccc(OCCN)cc2)NC(=O)[C@@H]2CCNC(=O)CC[C@H](NC(=O)[C@H](CO)NC(=O)Cc3ccc(cc3)CNC(=O)CC[C@@H](C(=O)N[C@@H](CCN)C(N)=O)NC1=O)C(=O)N[C@@H](Cc1c[nH]c3c(F)cccc13)C(=O)N[C@@H](CCC(N)=O)C(=O)N2) [Compound 139]	30.2 nM
DESCWQCWWLXR (HELM PEPTIDE1{D.E.S.C.W.Q.C.W.W.L.[Dab].R.[am]}|CHEM1{[O=C(C[*:1])C[*:2]]}$PEPTIDE1,PEPTIDE1,2:R3-11:R3|PEPTIDE1,CHEM1,4:R3-1:R1|PEPTIDE1,CHEM1,7:R3-1:R2$$$V2.0; SMILES CC(C)C[C@@H]1NC(=O)[C@H](Cc2c[nH]c3ccccc23)NC(=O)[C@H](Cc2c[nH]c3ccccc23)NC(=O)[C@@H]2CSCC(=O)CSC[C@H](NC(=O)[C@H](CO)NC(=O)[C@@H](NC(=O)[C@@H](N)CC(=O)O)CCC(=O)NCC[C@@H](C(=O)N[C@@H](CCCNC(=N)N)C(N)=O)NC1=O)C(=O)N[C@@H](Cc1c[nH]c3ccccc13)C(=O)N[C@@H](CCC(N)=O)C(=O)N2) [Compound 9]	> 1 µM
[4‑Aminomethyl‑phenylacetyl][Q(pyrrolidin)″]EWQ[Dab][AEF][2Nal][αMeL]E[Dab]-NH2 (lactam N-10, 3-6; SMILES CC(C)C[C@]1(C)NC(=O)[C@H](Cc2ccc3ccccc3c2)NC(=O)[C@H](Cc2ccc(OCCN)cc2)NC(=O)[C@@H]2CCNC(=O)CC[C@H](NC(=O)[C@H](CCC(=O)N3CCCC3)NC(=O)Cc3ccc(cc3)CNC(=O)CC[C@@H](C(=O)N[C@@H](CCN)C(N)=O)NC1=O)C(=O)N[C@@H](Cc1c[nH]c3ccccc13)C(=O)N[C@@H](CCC(N)=O)C(=O)N2) [Compound 145]	22.7 nM
[4‑Aminomethyl‑phenylacetyl]SEW[Q(pyrrolidin)″][Dab][AEF][2Nal][αMeL]E[Dab]-NH2 (lactam N-10, 3-6; SMILES CC(C)C[C@]1(C)NC(=O)[C@H](Cc2ccc3ccccc3c2)NC(=O)[C@H](Cc2ccc(OCCN)cc2)NC(=O)[C@@H]2CCNC(=O)CC[C@H](NC(=O)[C@H](CO)NC(=O)Cc3ccc(cc3)CNC(=O)CC[C@@H](C(=O)N[C@@H](CCN)C(N)=O)NC1=O)C(=O)N[C@@H](Cc1c[nH]c3ccccc13)C(=O)N[C@@H](CCC(=O)N1CCCC1)C(=O)N2) [Compound 146]	41.5 nM
[4‑Aminomethyl‑phenylacetyl″]SCWQC[AEF][2Nal][αMeL]ER[3Pal]-NH2 (lactam N-10; linker 3-6 via 1,3‑dibromopropan‑2‑one(3)) [Compound 147]	85.8 pM
[3Amb]SCWQC[AEF][2Nal][αMeL]E[Dab][3Pal]-NH2 (lactam (positions not given here); linker 3-6 via 1,3‑dibromopropan‑2‑one(3); not fully specified (bridges); printed as [(3-Aminomethyl)benzoyl](1c)*SC(2a)WQC(2a)[Y(2-aminoethoxy)][2-Nal][2-Me-Leu]E(1c)[Dab][3-(3-Pyridyl)-Ala]-[NH2]) [Compound 148]	86.8 pM
[3Amb]SCWQC[AEF][2Nal][αMeL]ER[Ala(quinolin-3-yl)]-NH2 (lactam (positions not given here); linker 3-6 via 1,3‑dibromopropan‑2‑one(3); not fully specified (bridges); printed as [(3-Aminomethyl)benzoyl](1c)*SC(2a)WQC(2a)][Y(2-aminoethoxy)][2-Nal][2-Me-Leu]E(1c)R[3-(3-Quinolinyl)-Ala]-[NH2]) [Compound 149]	4.82 nM
[3Amb]SCWQC[AEF][2Nal][αMeL]ER[d3Pal]-NH2 (lactam (positions not given here); linker 3-6 via 1,3‑dibromopropan‑2‑one(3); not fully specified (bridges); printed as [(3-Aminomethyl)benzoyl](1c)*SC(2a)WQC(2a)][Y(2-aminoethoxy)][2-Nal][2-Me-Leu]E(1c)R[{d}[3-(3-Pyridyl)-Ala]]-[NH2]) [Compound 150]	14.3 nM
[3Amb]SCWQC[AEF][2Nal][αMeL]ER[3‑Amino‑3‑(3'-pyridyl)propionyl]-NH2 (lactam (positions not given here); linker 3-6 via 1,3‑dibromopropan‑2‑one(3); not fully specified (bridges); printed as [(3-Aminomethyl)benzoyl](1c)*SC(2a)WQC(2a)][Y(2-aminoethoxy)][2-Nal][2-Me-Leu]E(1c)R[3-Amino-3-(3′-pyridyl)propionyl]-[NH2]) [Compound 151]	10.7 nM
[3Amb]IEWQ[Dab][AEF][2Nal][αMeV]E[Dab][3Pal]-NH2 (lactam (positions not given here); lactam 3-6; not fully specified (bridges)) [Compound 156]	85.7 pM
[4‑Aminomethyl‑phenylacetyl]IEWQ[Dab][AEF][2Nal][αMeV]E[Dab][3Pal]-NH2 (lactam (positions not given here); lactam 3-6; not fully specified (bridges); printed as [4-Aminomethyl-phenylacetyl](1c)*IE(2c)WQ[Dab](2c)[Y(2-aminoethoxy)][2-Nal][2-Me-Val]E(1c)[Dab][3-(3-Pyridyl)-Ala]-[NH2]) [Compound 157]	31.8 pM
